Laboratory results published in article PMC8131599 (2021).

T1: EV-D68 mature virion, strain US/MO/14-18947 (clade B) (enterovirus D68 strain US/MO/14-18947)
T1 chain 1: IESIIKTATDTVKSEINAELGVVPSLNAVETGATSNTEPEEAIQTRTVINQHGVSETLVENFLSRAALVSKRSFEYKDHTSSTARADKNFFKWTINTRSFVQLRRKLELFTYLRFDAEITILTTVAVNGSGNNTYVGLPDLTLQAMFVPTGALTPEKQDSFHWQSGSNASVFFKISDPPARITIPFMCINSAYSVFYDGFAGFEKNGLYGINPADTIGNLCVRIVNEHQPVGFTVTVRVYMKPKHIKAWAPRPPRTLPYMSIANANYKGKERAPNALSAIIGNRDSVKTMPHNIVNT
T1 chain 2: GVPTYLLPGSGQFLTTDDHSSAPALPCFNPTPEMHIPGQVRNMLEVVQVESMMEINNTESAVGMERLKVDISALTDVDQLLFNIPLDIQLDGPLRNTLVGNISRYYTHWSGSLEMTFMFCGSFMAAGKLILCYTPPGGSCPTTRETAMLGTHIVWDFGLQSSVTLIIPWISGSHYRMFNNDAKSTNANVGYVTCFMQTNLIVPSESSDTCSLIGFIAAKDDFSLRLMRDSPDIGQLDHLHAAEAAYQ
T1 chain 3: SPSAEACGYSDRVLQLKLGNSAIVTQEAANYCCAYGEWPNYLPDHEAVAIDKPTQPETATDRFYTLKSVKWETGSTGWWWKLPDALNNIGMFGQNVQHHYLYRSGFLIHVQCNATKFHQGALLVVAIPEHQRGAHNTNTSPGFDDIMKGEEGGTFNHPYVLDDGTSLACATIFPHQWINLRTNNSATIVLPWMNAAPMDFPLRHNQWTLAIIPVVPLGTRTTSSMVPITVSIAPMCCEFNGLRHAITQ
T1 chain 4: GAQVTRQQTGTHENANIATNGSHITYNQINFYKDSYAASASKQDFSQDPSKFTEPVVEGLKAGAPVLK

B1: human-mouse chimeric MAb 2H12 (antibody, V domains shown)
VH: QVQLQQPGAELVMPGASVKMSCKASGYTFTDYWMHWVKQRPGQGLEWIGAIDTSDSYTTYNRKFKGKATLTVDESSSTAYMQLISLTSEDSAVYYCARGGGGNSPFAYWGQGTLVTVSA
VL: DIQMTQSPSSLSASLGERVSLTCRASQDIGSSLNWLQQEPDGTIKRLIYATSSLDSGVPKRFSGSRSGSDYSLTISSLESEDFVDYYCLQYASFPLTFGAGTKLELK
B2: human-mouse chimeric MAb 8F12 (antibody, V domains shown)
VH: QVQLQQPGTELVRPGASVKLSCKASGYSFTSYWMNWVKQRPGQGLEWIGMIHPSDSETRLNQRFKDKATLTVDKSSNTAYMQLSSPTSEDSAVYYCAREGYDYDGFAYWGQGTLVTVSA
VL: QIVLTQSPAAMSASPGEKVTMTCSASSSVIYMYWYQQKPGSSPRLLIYDTSNLASGVPVRFSGSGSGTSYSLTISRMEAEDAATYYCQQWSSFPYTFGGGTKLEIK

Experiments:
[1] = biological target: T1, EV-D68 mature virion, strain …; experiment: BLI
[2] = biological target: T1, EV-D68 mature virion, strain …; experiment: BLI

Row | Binder | koff [1] | Kd [2]
1 | B1 | 0.00055 s⁻¹ | 2.9 nM
2 | B2 | 0.0044 s⁻¹ | 
